Experimental data taken from US20230136252A1 (NANJING LEGEND BIOTECH, published 2023).

Tests used:
[1] = target: T1, recombinant mouse GPC2-His (mouse, UniProt Q8BKV1 22-556, limits assumed); experiment: ELISA, plate coated with 2 ug/mL rmGPC2, VHH-hIgG1Fc detected with HRP goat anti-human IgG, OD450
T1 construct: Bought protein; also called murine GPC2; RD System Cat #2355-GP; not shown: His tag
T1 sequence (looked up): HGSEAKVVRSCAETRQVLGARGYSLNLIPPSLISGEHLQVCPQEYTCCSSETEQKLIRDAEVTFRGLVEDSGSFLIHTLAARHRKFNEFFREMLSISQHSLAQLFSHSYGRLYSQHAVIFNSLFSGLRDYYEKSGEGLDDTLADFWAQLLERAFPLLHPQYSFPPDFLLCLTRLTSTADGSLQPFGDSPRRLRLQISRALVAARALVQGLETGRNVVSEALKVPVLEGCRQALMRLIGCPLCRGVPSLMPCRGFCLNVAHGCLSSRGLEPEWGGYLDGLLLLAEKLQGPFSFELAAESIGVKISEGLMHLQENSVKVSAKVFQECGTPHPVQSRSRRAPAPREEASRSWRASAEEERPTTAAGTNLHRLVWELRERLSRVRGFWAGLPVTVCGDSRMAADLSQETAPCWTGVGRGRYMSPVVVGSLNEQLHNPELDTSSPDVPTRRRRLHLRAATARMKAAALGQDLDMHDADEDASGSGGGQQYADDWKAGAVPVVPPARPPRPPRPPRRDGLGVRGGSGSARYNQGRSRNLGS
Experimental: (§1) To evaluate the specificity of humanized anti-GPC2 VHH5 to recombinant human GPC2 protein, an ELISA-based binding assay was conducted to determine the differential target proteins binding of anti-GPC2 VHH5. Briefly, microplates were coated with 2 μg/mL recombinant human GPC1-His (RD System, Cat #4519-GP), GPC2-His (RD System, Cat #2304-GP), GPC3-His (ACRO, Cat #GP3-H5223), GPC4-Fc (RD System, Cat #9195-GP), GPC5-His (RD System, Cat #2607-G5/CF), GPC6-His (RD System, Cat #2845-GP) or recombinant mouse GPC2-His (RD System, Cat #2355-GP) proteins. Recombinant human protein coated plates were blocked with skim milk. Serially diluted humanized VHH-hIgG1Fc recombinant antibodies were added to each well of the plates and incubated at 4° C. for 1.5 h. Samples were further labelled with HRP-conjugated goat anti human IgG (H+L) secondary antibody (Genescript, Cat #A00166-1) and signal was developed with 3,3′,5,5′-Tetramethylbenzidine (TMB) substrate according to manufacturer's instruction. For the GPC4, VHH-His recombinant antibodies and anti-His tag secondary antibody (Genescript, Cat #A00612) were added to the GPC4-Fc coated plates instead. Optic density at 450 nm was measured by plate reader.

[2] = target: T2, recombinant human GPC3-His (human, UniProt P51654 25-559); experiment: ELISA, plate coated with 2 ug/mL rhGPC3-his, VHH-hIgG1Fc detected with HRP goat anti-human IgG, OD450
T2 construct: Bought protein; also called ACRO Cat #GP3-H5223; not shown: His tag
T2 sequence (P51654 25-559 limits assumed): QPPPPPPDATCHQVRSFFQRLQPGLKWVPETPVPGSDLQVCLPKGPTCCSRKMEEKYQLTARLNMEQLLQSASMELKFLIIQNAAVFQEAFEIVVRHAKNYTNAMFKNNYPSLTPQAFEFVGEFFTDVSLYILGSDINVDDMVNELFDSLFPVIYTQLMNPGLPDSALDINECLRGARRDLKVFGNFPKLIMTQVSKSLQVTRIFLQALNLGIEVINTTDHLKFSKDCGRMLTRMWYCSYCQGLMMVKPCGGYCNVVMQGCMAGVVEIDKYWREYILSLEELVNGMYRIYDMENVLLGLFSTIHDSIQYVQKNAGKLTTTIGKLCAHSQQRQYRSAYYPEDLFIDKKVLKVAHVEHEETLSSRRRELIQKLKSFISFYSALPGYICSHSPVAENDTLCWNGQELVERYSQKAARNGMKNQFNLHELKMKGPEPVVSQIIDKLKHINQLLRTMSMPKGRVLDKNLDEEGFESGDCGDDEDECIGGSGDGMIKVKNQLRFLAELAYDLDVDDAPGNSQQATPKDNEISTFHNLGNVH
Experimental: as §1

[3] = target: T3, recombinant human GPC5-His (human, UniProt P78333 25-551, limits assumed); experiment: ELISA, plate coated with 2 ug/mL rhGPC5-his, VHH-hIgG1Fc detected with HRP goat anti-human IgG, OD450
T3 construct: Bought protein; also called RD System Cat #2607-G5/CF; not shown: His tag
T3 sequence (looked up): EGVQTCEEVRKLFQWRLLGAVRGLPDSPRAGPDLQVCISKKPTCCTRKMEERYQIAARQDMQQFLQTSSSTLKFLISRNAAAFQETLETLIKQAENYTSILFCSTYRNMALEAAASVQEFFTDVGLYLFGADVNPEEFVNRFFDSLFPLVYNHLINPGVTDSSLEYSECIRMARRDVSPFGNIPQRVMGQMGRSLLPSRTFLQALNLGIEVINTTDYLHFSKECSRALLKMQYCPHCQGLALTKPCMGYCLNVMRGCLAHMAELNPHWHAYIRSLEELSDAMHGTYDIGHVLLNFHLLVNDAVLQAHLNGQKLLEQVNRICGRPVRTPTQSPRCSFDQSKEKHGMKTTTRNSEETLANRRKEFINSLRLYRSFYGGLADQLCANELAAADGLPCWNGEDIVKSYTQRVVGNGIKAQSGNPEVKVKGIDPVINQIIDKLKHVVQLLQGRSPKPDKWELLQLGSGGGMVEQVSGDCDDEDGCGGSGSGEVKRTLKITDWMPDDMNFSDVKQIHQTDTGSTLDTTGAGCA
Experimental: as §1

[4] = target: T4, recombinant human GPC6-His (human, UniProt Q9Y625 24-529, limits assumed); experiment: ELISA, plate coated with 2 ug/mL rhGPC6-his, VHH-hIgG1Fc detected with HRP goat anti-human IgG, OD450
T4 construct: Bought protein; also called RD System Cat #2845-GP; not shown: His tag
T4 sequence (looked up): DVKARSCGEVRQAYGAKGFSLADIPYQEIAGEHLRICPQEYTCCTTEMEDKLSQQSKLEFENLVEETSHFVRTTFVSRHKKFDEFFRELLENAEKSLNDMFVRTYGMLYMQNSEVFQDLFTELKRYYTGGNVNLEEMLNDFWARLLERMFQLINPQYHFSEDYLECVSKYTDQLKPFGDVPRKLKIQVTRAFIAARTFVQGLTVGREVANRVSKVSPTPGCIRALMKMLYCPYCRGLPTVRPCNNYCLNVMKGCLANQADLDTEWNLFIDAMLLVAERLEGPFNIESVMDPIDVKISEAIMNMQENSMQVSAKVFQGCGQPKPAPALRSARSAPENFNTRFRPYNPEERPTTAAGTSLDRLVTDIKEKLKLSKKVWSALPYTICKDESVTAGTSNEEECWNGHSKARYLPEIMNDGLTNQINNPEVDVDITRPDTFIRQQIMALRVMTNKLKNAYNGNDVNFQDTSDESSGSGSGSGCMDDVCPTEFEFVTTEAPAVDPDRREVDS
Experimental: as §1

Measured: binding result

B1: AS78117VH4-hIgG1Fc (Fc fusion)
chain: EVQLVESGGGLVQPGGSLRLSCIVSRYTYATYSMAWFRQAPGKGLEGVSGLDSVGATGYAESVKGRFTISRDNSKNTLYLQMNSLRAEDTAVYYCVVDPASAKVTYGSWSTPSYAYWGQGTLVTVSS
notes: also called anti-GPC2 VHH-hIgG1Fc; not shown: human IgG1 Fc fragment (hIgG1Fc)
no binding (tested: about 300 nM): all assays above

B2: AS70950VH6-hIgG1Fc (Fc fusion)
chain: EVQLVESGGGLVQPGGSLRLSCAISEFTYKNTCVGWFRQAPGKGREGVAAIDSDGNTNYVDSVKGRFTISQDNSKNTVYLQMNSLRAEDTAMYYCAAGAYCGRLLLWIGNYAYWGQGTLVTVSS
notes: as for B1
no binding (tested: about 300 nM): all assays above

B3: AS79236VH6-hIgG1Fc (Fc fusion)
chain: EVQLVESGGGLVQPGGSLRLSCAVSGYTYSSYCMAWFRQAPGKGLEGVASIDAGGRTTYVDSVKGRFTISKDNAKNSLYLQMNSLRAEDTAMYYCAVDVRTRCGGTWDGEAVYFPYWGQGTLVTVSS
notes: as for B1
no binding (tested: about 300 nM): all assays above
